Measured values reported in US20260028400A1 (AIMED BIO, published 2026).
Where two headings read alike, the source gives them in different places.

Assays:
[1] = molecular target: T1, human ROR1 (human, UniProt Q01973 30-403, limits assumed); assay: SPR (Biacore 3000), human ROR1 on CM5 chip, IgG injected, 1:1 Langmuir
T1 construct: also called human ROR1 protein
Description: (§1) To more quantitatively analyze the binding ability of the anti-ROR1 antibody to ROR1, SPR (surface plasmon resonance) was performed. A Biacore 3000 device (GE Healthcare) was used. Using the amine coupling method, human ROR1 or mouse ROR1 was diluted with 10 mM sodium acetate, pH 4.5 and immobilized on a CM5 sensor chip (GE Healthcare) at 300 response units (RU). The activated portion remaining on the surface of the sensor chip was deactivated by adding 1 M ethanolamine-HCl (pH 8.5).

[2] = molecular target: T2, ROR1 expressed on cell surface (Jeko-1 cell line, AMB-LC-0003T and AMB-LC-0002T patient-derived lung cancer … (human, UniProt Q01973 30-937)); assay: flow cytometry on Jeko-1 cells
T2 construct: whole, on cells; Endogenous ROR1 on human cells; the cell is named in the assay or readout field of each row; also called ROR1 antigen expressed in AMB-LC-0003T patient-derived lung cancer cells; ROR1 antigen expressed in Jeko-1 cell line
Description: (§2) Before therapeutic use of anti-ROR1 antibodies, it is very important to determine whether the antibody binds to the antigen expressed on the cell surface. The cell binding ability of anti-ROR1 antibodies developed by the present inventors was measured using FACS in Jeko-1 cell line and AMB-LC-0003T patient-derived cells, which were confirmed to have high ROR1 expression. Each cell type was dispensed at 1×10⁵ cells/100 μl FACS buffer per well in a 96-well plate.
(§3) Cell binding ability analysis was performed using anti-ROR1 candidate antibodies P015004, P015042, P015043, P015044, P015042v1 with improved biological and physical properties, and P015042v1-6, one of modified materials thereof. Each antibody was serially diluted 10-fold from 100 nM to 10 nM, 1 nM, 100 pM, 10 pM, and 1 pM and the cells were treated therewith. After reaction at 4° C. for 30 minutes, washing was performed twice. PE-labeled goat anti-human IgG Fc PE (ThermoFisher; 12-4998-82) as a secondary antibody was diluted at a ratio of 1:100 in FACS buffer, and 100 μl thereof was dispensed per well. Reaction again at 4° C. for 30 minutes and washing twice were performed. Finally, 100 μl of FACS buffer was dispensed per well, followed by mixing well with a pipette and then flow cytometry using a NovoCyte flow cytometer (Agilent). Analysis was performed using GraphPad Prism 9.3.1, and EC₅₀ values were obtained using a log (agonist) vs. response-Variable slope nonlinear graph model.

[3] = molecular target: T3, mouse ROR1 (mouse, UniProt Q9Z139 30-403, limits assumed); assay: SPR (Biacore 3000), mouse ROR1 on CM5 chip, IgG injected, 1:1 Langmuir
T3 construct: also called mouse ROR1 protein
Description: as §1

[4] = molecular target: T2, ROR1 expressed on cell surface (Jeko-1 …); assay: flow cytometry on AMB-LC-0003T patient-derived lung cancer cells
Description: as §2, §3

[5] = molecular target: T4, FZD+KRD (human, UniProt Q01973); assay: ELISA, IgG on coated domain, OD450
T4 construct: frizzled plus kringle domains, His tag; also called FK domain; human ROR1-frizzled-kringle domain
Description: (§4) ELISA was performed to analyze the binding domain using the IgG antibody of the selected clone.
(§5) After washing with PBST and distilled water, binding at room temperature for 1 hour using a goat-derived HRP-conjugated anti-human antibody (Invitrogen, 31482, Goat anti-Human IgG F(ab′)₂ Secondary Antibody, HRP) and then washing again using PBST and distilled water were performed. After color development by adding TMB substrate solution (Thermo Scientific, 34029, 1-Step™ Ultra TMB-ELISA Substrate Solution), the color reaction was stopped with stop solution (Invitrogen, SS04, ELISA Stop Solution), and the absorbance was measured at OD 450 nm. The anti-ROR1 antibody clone binding to each domain was analyzed through ELISA (FIG. 3).

[6] = molecular target: T5, FZD (human, UniProt Q01973); assay: ELISA, IgG on coated domain, OD450
T5 construct: frizzled domain, His tag; also called Frizzled domain; human ROR1-frizzled domain
Description: as §4, §5

[7] = molecular target: T6, Ig-like (human, UniProt Q01973); assay: ELISA, IgG on coated domain, OD450
T6 construct: Ig-like domain, His tag; also called Ig-like domain; human ROR1-immunoglobulin domain
Description: as §4, §5

[8] = molecular target: T7, Ig+FZD (human); assay: ELISA, IgG on coated domain, OD450
T7 construct: Ig-like plus frizzled domains, His tag; also called IF domain; human ROR1-immunoglobulin-frizzled domain
Description: as §4, §5

[9] = molecular target: T2, ROR1 expressed on cell surface (Jeko-1 …); assay: cell-based or functional assay
[10] = molecular target: T2, ROR1 expressed on cell surface (Jeko-1 …); assay: cell-based or functional assay; remark: listed apart in the source
[11] = molecular target: T2, ROR1 expressed on cell surface (Jeko-1 …); assay: cell-based or functional assay; remark: listed apart in the source

T5 sequence (Q01973 165-305 limits assumed): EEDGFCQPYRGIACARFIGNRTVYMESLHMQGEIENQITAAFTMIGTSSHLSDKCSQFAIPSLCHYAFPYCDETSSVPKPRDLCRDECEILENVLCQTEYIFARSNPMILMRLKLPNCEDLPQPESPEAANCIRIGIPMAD
T2 sequence (Q01973 30-937): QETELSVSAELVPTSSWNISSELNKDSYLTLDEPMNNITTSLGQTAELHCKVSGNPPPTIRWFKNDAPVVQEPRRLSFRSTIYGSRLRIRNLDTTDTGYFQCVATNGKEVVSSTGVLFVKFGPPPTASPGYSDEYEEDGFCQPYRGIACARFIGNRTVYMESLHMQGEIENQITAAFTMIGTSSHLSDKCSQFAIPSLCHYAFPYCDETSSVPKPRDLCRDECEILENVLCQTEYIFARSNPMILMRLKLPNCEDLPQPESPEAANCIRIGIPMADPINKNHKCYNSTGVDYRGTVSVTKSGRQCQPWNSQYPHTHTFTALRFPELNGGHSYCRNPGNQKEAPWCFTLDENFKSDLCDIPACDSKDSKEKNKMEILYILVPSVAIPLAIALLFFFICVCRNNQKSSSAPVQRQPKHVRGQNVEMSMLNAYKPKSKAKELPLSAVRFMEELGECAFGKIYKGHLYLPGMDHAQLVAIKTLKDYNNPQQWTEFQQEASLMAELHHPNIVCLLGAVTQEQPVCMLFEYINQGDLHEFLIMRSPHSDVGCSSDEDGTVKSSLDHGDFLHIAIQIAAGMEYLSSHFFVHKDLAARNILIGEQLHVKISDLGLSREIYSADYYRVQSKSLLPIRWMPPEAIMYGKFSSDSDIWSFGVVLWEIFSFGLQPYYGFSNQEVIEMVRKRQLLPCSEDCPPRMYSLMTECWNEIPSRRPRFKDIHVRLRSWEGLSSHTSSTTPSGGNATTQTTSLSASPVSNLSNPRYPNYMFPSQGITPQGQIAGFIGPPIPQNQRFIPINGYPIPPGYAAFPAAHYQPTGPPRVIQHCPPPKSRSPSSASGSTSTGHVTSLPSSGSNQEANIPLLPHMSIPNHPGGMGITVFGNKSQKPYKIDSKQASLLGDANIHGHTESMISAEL
T1 sequence (Q01973 30-403 limits assumed): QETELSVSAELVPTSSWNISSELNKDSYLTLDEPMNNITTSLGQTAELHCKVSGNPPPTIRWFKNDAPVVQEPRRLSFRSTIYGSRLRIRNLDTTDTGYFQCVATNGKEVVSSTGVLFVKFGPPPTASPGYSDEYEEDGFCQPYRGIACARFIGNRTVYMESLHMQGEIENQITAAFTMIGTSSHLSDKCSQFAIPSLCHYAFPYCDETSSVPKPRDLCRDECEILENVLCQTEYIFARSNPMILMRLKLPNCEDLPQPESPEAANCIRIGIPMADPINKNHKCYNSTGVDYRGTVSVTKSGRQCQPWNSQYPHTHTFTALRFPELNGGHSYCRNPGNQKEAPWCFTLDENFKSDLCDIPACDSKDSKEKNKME
T4 sequence (Q01973 165-395 limits assumed): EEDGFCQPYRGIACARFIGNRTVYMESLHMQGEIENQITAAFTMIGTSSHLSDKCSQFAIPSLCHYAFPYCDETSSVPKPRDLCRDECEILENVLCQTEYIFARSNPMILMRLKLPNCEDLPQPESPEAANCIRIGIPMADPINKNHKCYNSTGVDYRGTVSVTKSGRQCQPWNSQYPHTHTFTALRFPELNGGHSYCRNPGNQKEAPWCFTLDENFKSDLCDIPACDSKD
T3 sequence (Q9Z139 30-403 limits assumed): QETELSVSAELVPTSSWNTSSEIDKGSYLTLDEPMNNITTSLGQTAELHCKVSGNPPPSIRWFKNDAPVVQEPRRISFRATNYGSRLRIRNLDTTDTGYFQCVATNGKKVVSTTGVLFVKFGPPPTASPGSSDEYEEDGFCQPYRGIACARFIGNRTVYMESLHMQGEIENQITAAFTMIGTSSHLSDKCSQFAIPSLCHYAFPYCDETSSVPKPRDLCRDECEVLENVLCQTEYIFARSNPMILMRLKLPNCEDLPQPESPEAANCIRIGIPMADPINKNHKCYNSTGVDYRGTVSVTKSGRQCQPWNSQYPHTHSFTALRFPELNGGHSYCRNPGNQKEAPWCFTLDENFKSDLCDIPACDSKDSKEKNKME
T6 sequence (Q01973 39-151 limits assumed): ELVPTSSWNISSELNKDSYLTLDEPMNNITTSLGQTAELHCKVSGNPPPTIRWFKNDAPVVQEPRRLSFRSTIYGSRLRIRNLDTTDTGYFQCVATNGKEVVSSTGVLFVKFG
T7 sequence (Q01973 30-305): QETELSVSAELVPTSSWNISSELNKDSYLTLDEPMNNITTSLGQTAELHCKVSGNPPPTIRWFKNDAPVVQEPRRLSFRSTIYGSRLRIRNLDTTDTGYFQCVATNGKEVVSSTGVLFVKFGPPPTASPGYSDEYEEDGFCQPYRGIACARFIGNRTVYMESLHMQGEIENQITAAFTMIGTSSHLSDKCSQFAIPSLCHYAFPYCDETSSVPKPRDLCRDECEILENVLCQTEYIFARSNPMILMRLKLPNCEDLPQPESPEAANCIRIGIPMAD

Row | Binder | Kd [1] | koff [1] | kon [1] | EC50 [2] | Kd [3] | koff [3] | kon [3] | EC50 [4] | binding result [5] | binding result [6] | binding result [7] | EC50 (read off the curve) [8] | Fold Change of IC50, AMB-LC-0002T/AMB-LC-0003T [9] | IC50 (nM), spheroid volume, AMB-LC-0002T (low ROR1 expression) [9] | IC50 (nM), spheroid volume, AMB-LC-0003T (high ROR1 expression) [9] | IC50, spheroid volume, AMB-LC-0002T (low ROR1 expression) [10] | Fold Change of IC50, AMB-LC-0002T/AMB-LC-0003T [11] | IC50 (nM), spheroid volume after 6 days of treatment, AMB-LC-0003T (high ROR1 expression) [11] | IC50 (nM), spheroid volume, AMB-LC-0002T (very low ROR1 expression) [11] | EC50 (read off the curve) [7]
1 | P015004 (antibody, V domains shown) VH: EVQLLESGGGLVQPGGSLRLSCAASGFTFSDYAMAWVRQAPGKGLEWVSIIYPGDSETIYSPSFEGRFTISRDNSKNTLYLQMNSLRAEDTAVYYCARDTYWEGYFDLWGQGTLVTVSS VL: EIVLTQSPGTLSLSPGERATLSCRASQGISNYLAWYQQKPGQAPRLLIYDASNLESGIPDRFSGSGSGTDFTLTISRLEPEDFAVYYCQQYANLPYTFGQGTKVEIK | 0.325 nM | 0.00343 s⁻¹ | 1.06e+07 M⁻¹ s⁻¹ | 8.16 nM | 0.328 nM | 0.00269 s⁻¹ | 8.18e+06 M⁻¹ s⁻¹ | 4.6 nM | no binding (tested: 300 nM) | no binding (tested: 300 nM) | no binding (tested: 300 nM) | ~3 nM |  |  |  |  |  |  |  | 
2 | P015042 (antibody, V domains shown) VH: EVQLLESGGGLVQPGGSLRLSCAASGFTFSDYAMSWVRQAPGKGLEWVSVISSDGGSIYYADSVKGRFTISRDNSKNTLYLQMNSLRAEDTAVYYCAKDRSRDMEVDFDYWGQGTLVTVSS VL: QSVLTQPPSASGTPGQRVTISCSGSSSNIGSNYVTWYQQLPGTAPKLLIYDSSQRPSGVPDRFSGSKSGTSASLAISGLRSEDEADYYCGTWDYSLSGYVFGGGTKLTVL | 0.17 nM | 0.000239 s⁻¹ | 1.41e+06 M⁻¹ s⁻¹ | 0.081 nM | 0.102 nM | 0.000176 s⁻¹ | 1.72e+06 M⁻¹ s⁻¹ | 0.15 nM | no binding (tested: 300 nM) | no binding (tested: 300 nM) |  | ~0.4 nM |  |  |  |  |  |  |  | ~7 nM

The remaining lines, values ahead:

Row | Kd [1] | koff [1] | kon [1] | EC50 [2] | Kd [3] | koff [3] | kon [3] | EC50 [4] | binding result [5] | binding result [6] | binding result [7] | EC50 (read off the curve) [8] | Fold Change of IC50, AMB-LC-0002T/AMB-LC-0003T [9] | IC50 (nM), spheroid volume, AMB-LC-0002T (low ROR1 expression) [9] | IC50 (nM), spheroid volume, AMB-LC-0003T (high ROR1 expression) [9] | IC50, spheroid volume, AMB-LC-0002T (low ROR1 expression) [10] | Fold Change of IC50, AMB-LC-0002T/AMB-LC-0003T [11] | IC50 (nM), spheroid volume after 6 days of treatment, AMB-LC-0003T (high ROR1 expression) [11] | IC50 (nM), spheroid volume, AMB-LC-0002T (very low ROR1 expression) [11] | EC50 (read off the curve) [7] | Binder
3 | 3.08 nM | 0.00382 s⁻¹ | 1.24e+06 M⁻¹ s⁻¹ | 0.13 nM | 1.21 nM | 0.00202 s⁻¹ | 1.67e+06 M⁻¹ s⁻¹ | 1.78 nM | no binding (tested: 300 nM) | no binding (tested: 300 nM) |  |  |  |  |  |  |  |  |  |  | P015044 (antibody, V domains shown) VH: EVQLLESGGGLVQPGGSLRLSCAASGFTFSNYAMHWVRQAPGKGLEWVSIIYPDDDTRYNPSFRGRFTISRDNSKNTLYLQMNSLRAEDTAVYYCARDLLYAGDYWGQGTLVTVSS VL: QSVLTQPPSASGTPGQRVTISCGGNNIESKAVHWYQQLPGTAPKLLIYANNKRPSGVPDRFSGSKSGTSASLAISGLRSEDEADYYCQSYDSNKVVFGGGTKLTVL
4 |  |  |  |  |  |  |  |  |  |  |  |  | 81.4 fold | 187 nM | 2.3 nM | ≥ 100 nM | 56.3 fold | 2.88 nM | 162 nM |  | P015042-vc-PAB-MMAE (antibody, IgG1, V domains shown, maleimidocaproyl-valine-citrulline-p-aminobenzyloxycarbonyl monomethyl auristatin E on cysteine sulfhydryls of reduced disulfides; positions not given; average 3.3 drugs per antibody) VH: EVQLLESGGGLVQPGGSLRLSCAASGFTFSDYAMSWVRQAPGKGLEWVSVISSDGGSIYYADSVKGRFTISRDNSKNTLYLQMNSLRAEDTAVYYCAKDRSRDMEVDFDYWGQGTLVTVSS VL: QSVLTQPPSASGTPGQRVTISCSGSSSNIGSNYVTWYQQLPGTAPKLLIYDSSQRPSGVPDRFSGSKSGTSASLAISGLRSEDEADYYCGTWDYSLSGYVFGGGTKLTVL
